Source: US20230212228A1 (ETH Z RICH, published 2023)
Groups on a side chain read outwards from the residue. No end group written: not given here. Mal‑Cy5 = Cy5-maleimide thiol adduct on the Cys side chain

B1: Cy5-FnBPA5 (peptide)
peptide: C([maleimide-Cy5])GGGQVTTESNLVEFDEESTKGIVTGAVSDHTTVEDTK
modifications: not fully specified
notes: A payload-GGG- format by amide bond is also mentioned; also called Cy5-labelled FnBPA5; FnBPA5 peptide

Assays:
[1] = target: T1, Fib1, N-terminal 30 kDa fragment of fibronectin (Homo sapiens (Human), UniProt P02751 32-290); assay: fluorescence polarization, Cy5-labelled peptide titrated with Fib1
T1 construct: also called Fib1 construct; 30 kDa N-terminal fragment of fibronectin containing the N-terminal FnI1-5 modules

[2] = target: T1, Fib1, N-terminal 30 kDa fragment of …; assay: fluorescence polarization/anisotropy, Cy5-labelled peptide (48 nM) titrated with Fib1 in PBS pH 7.4

T1 sequence (P02751 32-290 limits assumed): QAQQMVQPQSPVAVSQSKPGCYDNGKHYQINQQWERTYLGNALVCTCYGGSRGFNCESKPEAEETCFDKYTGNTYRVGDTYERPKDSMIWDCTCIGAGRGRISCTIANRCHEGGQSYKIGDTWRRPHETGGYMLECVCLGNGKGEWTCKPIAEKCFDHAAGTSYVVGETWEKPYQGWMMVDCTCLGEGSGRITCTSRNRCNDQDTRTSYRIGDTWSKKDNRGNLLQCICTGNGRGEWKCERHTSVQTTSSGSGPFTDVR

| Binder | binding result [1] | Kd [2] |
| --- | --- | --- |
| C(Mal‑Cy5)GGGQVTTGSNLVEFTEESLGIVTGAVSDHTTVEDT (also called Cy5-labelled FnBPA5.1) [Cy5-FnBPA5.1] | binds |  |
| B1 |  | 102 nM |
